From patent US20170224769A1 come the findings set out here.

The target in the test is high mobility group box 1 protein (HMGB1) (Homo sapiens (Human)) (UniProt P09429). Briefly: SPR (Reichert SR7500DC), HMGB1 coated on CMDH chip.

Broadly, the Kd is the free concentration of one partner at which half of the binding sites on the other are occupied at equilibrium, for simple one-to-one binding. What is called koff is the first-order rate constant of dissociation. A lower koff goes with slow dissociation. One may read the kon as the rate constant with which the complex forms.

UniProt P09429, sequence (P09429 whole entry, form in doubt): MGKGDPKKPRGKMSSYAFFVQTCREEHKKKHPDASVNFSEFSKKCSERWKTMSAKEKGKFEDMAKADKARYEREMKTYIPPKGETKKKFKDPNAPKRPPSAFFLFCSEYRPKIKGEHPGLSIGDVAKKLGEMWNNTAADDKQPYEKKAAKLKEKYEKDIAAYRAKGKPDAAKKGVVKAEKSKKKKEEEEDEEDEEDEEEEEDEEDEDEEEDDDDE

For the substance “rHMGB1A-his6 (high mobility group box 1 A domain, C-terminal six histidines) (from UniProt P09429 1-164)”, the Kd is 2800 nM, the dissociation rate constant (koff) amounted to 0.00394 s⁻¹ and the kon was found to be 1400 M⁻¹ s⁻¹.
“rTAT-HMGB1A-his6 (fusion of the TAT peptide and the A box domain of HMGB1, C-terminal six histidines) (from UniProt P04608 49-57; P09429 1-164)”: the equilibrium dissociation constant (Kd) is 75.1 nM, the koff amounted to 0.000691 s⁻¹ and the on-rate constant (kon) came out at 9200 M⁻¹ s⁻¹.
